Results from patent publication US20160304622A1 (GENEFRONTIER, published 2016).

Key:
Test in all cases: immunoblotting after reducing SDS-PAGE
[1] = biological target: T1, recombinant human ADAMTS15 (R&D Systems) (human, UniProt Q8TE58 213-950, limits assumed)
T1 sequence (looked up): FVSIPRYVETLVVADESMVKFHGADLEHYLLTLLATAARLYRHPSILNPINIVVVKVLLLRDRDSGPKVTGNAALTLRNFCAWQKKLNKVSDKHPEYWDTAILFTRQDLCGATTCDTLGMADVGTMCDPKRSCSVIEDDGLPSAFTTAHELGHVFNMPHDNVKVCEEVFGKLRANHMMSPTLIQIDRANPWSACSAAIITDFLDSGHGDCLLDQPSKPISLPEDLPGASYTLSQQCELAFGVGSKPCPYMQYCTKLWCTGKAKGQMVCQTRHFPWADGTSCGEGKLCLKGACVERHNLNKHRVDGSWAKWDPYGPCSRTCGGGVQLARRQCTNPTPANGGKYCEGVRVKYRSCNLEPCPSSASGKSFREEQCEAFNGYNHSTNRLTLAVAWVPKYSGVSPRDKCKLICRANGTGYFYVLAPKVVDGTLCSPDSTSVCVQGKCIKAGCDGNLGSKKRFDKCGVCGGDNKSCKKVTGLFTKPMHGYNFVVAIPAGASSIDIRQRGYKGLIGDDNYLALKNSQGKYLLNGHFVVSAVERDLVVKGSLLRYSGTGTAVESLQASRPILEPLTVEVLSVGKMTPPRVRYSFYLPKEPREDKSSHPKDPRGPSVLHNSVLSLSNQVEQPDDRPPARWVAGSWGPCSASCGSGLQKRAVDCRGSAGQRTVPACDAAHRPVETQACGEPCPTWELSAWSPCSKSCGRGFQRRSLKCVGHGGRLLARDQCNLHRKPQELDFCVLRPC
Description: (§1) Recombinant proteins of human ADAMTS1 (R&D Systems), ADAMTS4, ADAMTS5 (R&D Systems), ADAMTS15 (R&D Systems), ADAM10 (R&D Systems), ADAM12 (Mochida Pharmaceutical Co., Ltd., Tokyo, Japan), ADAM17 (R&D Systems) and MMP-13 (Millipore, Billerica, Mass.) and purified human MMP-1, MMP-2, MMP-3 and MMP-9 (Daiichi Fine Chemical, Co., Ltd., Toyama, Japan) were subjected to sodium dodecyl sulfate-polyacrylamide gel electrophoresis (SDS-PAGE) under reducing conditions, and the samples resolved on the gels were transferred onto polyvinylidene difluoride (PVDF) membranes. […] After washing with phosphate buffered saline containing 0.1% Tween 20, the membranes were reacted with horseradish peroxidase-conjugated secondary antibody against human IgG (Invitrogen, Carlsbad, Calif.) for 1 h at room temperature. A chemiluminescence reagent (Pierce ECL western blotting substrate; Thermo Fisher Scientific, Waltham, Mass.) was used to make the labeled protein bands visible. All the samples were also examined on silver-stained gels, which were prepared by silver stain kit (Cosmo Bio Co., Ltd, […].).

[2] = biological target: T2, recombinant human ADAM10 (R&D Systems) (human, UniProt O14672 214-672, limits assumed)
T2 sequence (looked up): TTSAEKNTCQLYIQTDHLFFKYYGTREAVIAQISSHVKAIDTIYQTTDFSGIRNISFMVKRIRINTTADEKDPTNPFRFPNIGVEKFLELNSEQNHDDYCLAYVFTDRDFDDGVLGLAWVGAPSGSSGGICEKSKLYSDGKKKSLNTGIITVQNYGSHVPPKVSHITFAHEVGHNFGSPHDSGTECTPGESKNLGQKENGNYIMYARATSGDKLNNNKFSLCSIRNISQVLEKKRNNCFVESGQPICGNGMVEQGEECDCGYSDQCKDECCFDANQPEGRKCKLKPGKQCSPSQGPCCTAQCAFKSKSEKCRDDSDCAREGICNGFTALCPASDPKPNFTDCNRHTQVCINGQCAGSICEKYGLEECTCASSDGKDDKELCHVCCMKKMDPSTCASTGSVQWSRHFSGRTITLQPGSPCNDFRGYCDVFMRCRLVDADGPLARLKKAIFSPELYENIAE
Description: as §1

[3] = biological target: T3, recombinant human ADAM12 (Mochida Pharmaceutical Co., Ltd.) (human, UniProt O43184 208-708, limits assumed)
T3 sequence (looked up): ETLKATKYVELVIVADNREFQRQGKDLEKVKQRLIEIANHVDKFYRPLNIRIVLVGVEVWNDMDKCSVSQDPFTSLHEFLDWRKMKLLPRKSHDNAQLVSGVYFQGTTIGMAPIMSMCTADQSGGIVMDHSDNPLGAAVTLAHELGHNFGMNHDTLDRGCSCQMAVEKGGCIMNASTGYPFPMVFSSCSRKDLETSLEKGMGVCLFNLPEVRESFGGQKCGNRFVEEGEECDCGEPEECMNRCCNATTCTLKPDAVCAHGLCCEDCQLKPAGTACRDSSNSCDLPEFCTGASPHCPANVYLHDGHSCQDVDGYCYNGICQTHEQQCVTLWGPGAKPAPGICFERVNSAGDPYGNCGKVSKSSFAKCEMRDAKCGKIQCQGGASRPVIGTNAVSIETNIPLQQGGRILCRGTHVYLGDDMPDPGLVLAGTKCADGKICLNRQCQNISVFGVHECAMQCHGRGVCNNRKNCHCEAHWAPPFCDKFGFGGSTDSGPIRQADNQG
Description: as §1

[4] = biological target: T4, purified human MMP-2 (Daiichi Fine Chemical) (human, UniProt P08253 30-660, limits assumed)
T4 sequence (looked up): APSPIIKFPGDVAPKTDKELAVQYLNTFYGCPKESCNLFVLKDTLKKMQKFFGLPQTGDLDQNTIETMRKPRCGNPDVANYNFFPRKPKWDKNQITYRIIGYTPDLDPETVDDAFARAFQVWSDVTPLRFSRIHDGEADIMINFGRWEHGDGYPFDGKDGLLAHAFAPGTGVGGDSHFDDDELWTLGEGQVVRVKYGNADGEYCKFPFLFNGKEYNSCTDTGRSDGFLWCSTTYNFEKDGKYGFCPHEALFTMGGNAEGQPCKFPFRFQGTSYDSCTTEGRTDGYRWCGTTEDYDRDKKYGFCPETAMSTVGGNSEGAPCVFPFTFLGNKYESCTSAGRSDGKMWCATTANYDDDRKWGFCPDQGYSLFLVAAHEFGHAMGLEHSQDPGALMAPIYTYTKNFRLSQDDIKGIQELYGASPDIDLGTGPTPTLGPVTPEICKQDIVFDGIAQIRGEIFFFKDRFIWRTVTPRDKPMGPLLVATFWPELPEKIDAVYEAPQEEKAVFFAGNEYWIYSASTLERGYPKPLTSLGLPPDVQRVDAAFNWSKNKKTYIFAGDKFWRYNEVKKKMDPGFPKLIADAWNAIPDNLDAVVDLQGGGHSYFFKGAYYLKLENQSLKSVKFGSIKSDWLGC
Description: as §1

[5] = biological target: purified human MMP-9 (Daiichi Fine Chemical) (human, UniProt P14780 20-707, limits assumed)
purified human MMP-9 (Daiichi Fine Chemical), sequence (P14780 20-707 limits assumed): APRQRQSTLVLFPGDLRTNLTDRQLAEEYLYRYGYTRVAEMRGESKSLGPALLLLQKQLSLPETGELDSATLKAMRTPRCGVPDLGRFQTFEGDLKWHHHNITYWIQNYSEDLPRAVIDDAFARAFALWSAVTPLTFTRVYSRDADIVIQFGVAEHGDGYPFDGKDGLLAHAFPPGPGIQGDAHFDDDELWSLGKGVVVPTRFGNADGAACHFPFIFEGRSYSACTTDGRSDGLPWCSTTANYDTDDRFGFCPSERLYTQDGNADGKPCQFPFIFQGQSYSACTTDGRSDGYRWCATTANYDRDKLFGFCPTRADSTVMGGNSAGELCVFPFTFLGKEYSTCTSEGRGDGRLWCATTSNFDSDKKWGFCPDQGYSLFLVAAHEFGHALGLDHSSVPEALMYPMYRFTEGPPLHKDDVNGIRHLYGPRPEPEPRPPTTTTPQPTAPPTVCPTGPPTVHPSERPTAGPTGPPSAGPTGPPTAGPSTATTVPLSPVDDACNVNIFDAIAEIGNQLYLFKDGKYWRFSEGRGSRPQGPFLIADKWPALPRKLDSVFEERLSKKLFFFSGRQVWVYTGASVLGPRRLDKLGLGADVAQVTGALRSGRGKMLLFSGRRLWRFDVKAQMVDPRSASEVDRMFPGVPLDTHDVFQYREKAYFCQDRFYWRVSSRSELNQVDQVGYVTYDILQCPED
Description: as §1

Measured: binding result

B1: Fab of clone 237-53 (Fab, V domains shown)
VH: QVQLVQSGAEVKKPGSSVKVSCKASGGTFSSFAISWVRQAPGQGLEWMGGIFPIFGQANYAQKFQGRVTITADESTSTAYMELSSLRSEDTAVYYCARFSDWWEWQMDYWGQGTLVTVSS
VL: DIVMTQSPDSLAVSLGERATINCRSSQSILYSSNNNYLAWYQQKPGQPPKLLIHTASARESGVPDRFSGSGSGTDFTLTISSLQAEDVAVYYCQQYYSVSITFGQGTKVEIKR
no binding (tested: 5 µg/ml): all assays above
